Test results as given in US8980609B2, “Uniformly conjugated serine hydrolases” (Israel Institute for Biological Research, priority 2005, dated 2015).

B1: serum derived human BChE: serum derived human butyrylcholinesterase (protein, UniProt P06276 29-602, looked up)
Cholinesterase: EDDIIIATKNGKVRGMNLTVFGGTVTAFLGIPYAQPPLGRLRFKKPQSLTKWSDIWNATKYANSCCQNIDQSFPGFHGSEMWNPNTDLSEDCLYLNVWIPAPKPKNATVLIWIYGGGFQTGTSSLHVYDGKFLARVERVIVVSMNYRVGALGFLALPGNPEAPGNMGLFDQQLALQWVQKNIAAFGGNPKSVTLFGESAGAASVSLHLLSPGSHSLFTRAILQSGSFNAPWAVTSLYEARNRTLNLAKLTGCSRENETEIIKCLRNKDPQEILLNEAFVVPYGTPLSVNFGPTVDGDFLTDMPDILLELGQFKKTQILVGVNKDEGTAFLVYGAPGFSKDNNSIITRKEFQEGLKIFFPGVSEFGKESILFHYTDWVDDQRPENYREALGDVVGDYNFICPALEFTKKFSEWGNNAFFYYFEHRSSKLPWPEWMGVMHGYEIEFVFGLPLERRDNYTKAEEILSRSIVKRWANFAKYGNPNETQNNSTSWPVFKSTEQKYLTLNTESTRIMTKLRAQQCRFWTSFFPKVLEMTGNIDEAEWEWKAGFHRWNNYMMDWKNQFNDYTSKKESCVGL
B2: fetal bovine AChE: serum derived fetal bovine AChE; heterologous FBS-AChE in the monkey study (protein, UniProt P23795 31-613, looked up)
Acetylcholinesterase: EGPEDPELLVMVRGGRLRGLRLMAPRGPVSAFLGIPFAEPPVGPRRFLPPEPKRPWPGVLNATAFQSVCYQYVDTLYPGFEGTEMWNPNRELSEDCLYLNVWTPYPRPSSPTPVLVWIYGGGFYSGASSLDVYDGRFLTQAEGTVLVSMNYRVGAFGFLALPGSREAPGNVGLLDQRLALQWVQENVAAFGGDPTSVTLFGESAGAASVGMHLLSPPSRGLFHRAVLQSGAPNGPWATVGVGEARRRATLLARLVGCPPGGAGGNDTELVACLRARPAQDLVDHEWRVLPQESVFRFSFVPVVDGDFLSDTPEALINAGDFHGLQVLVGVVKDEGSYFLVYGAPGFSKDNESLISRAQFLAGVRVGVPQASDLAAEAVVLHYTDWLHPEDPARLREALSDVVGDHNVVCPVAQLAGRLAAQGARVYAYIFEHRASTLSWPLWMGVPHGYEIEFIFGLPLEPSLNYTIEERTFAQRLMRYWANFARTGDPNDPRDPKAPQWPPYTAGAQQYVSLNLRPLEVRRGLRAQACAFWNRFLPKLLSATDTLDEAERQWKAEFHRWSSYMVHWKNQFDHYSKQDRCSDL

Experiments:
[1] = mice, earlier reports; cited from earlier work
[2] = test system: anti-AChE antibody; assay: Immunogenicity in rhesus macaques: anti-AChE antibody formation by ELISA after repeated monthly administration; type: in vivo; conditions: monthly intervals, no adjuvant
Source text: Anti-AChE antibody levels elicited by PEGylated rHuAChE, were compared to those induced by nonmodified rHuAChE or FBS-AChE, following their administration to rhesus macaques. To this end, non-modified or PEG-modified AChE or the heterologous FBS-AChE (no adjuvant included) were repeatedly administered to monkeys at monthly intervals, and anti-AChE antibody formation was monitored by ELISA (FIG. 8).

Molecule | MRT (mean residual time) [1] | development of anti-AChE antibody after repeated administrations [2]
horse BChE: serum derived horse butyrylcholinesterase [reference compound] | approximately 1,400 minutes | –
B1 | approximately 1,400 minutes | –
B2 | approximately 1,400 minutes | following the third administration
